Measured values as given in article PMC9937922.

Target: proliferating cell nuclear antigen (PCNA) (human (endogenous in HAP1)) (UniProt P12004)
Test: co-IP; Dynabeads Protein A cross-linked (BS3) with α-PCNA (PC10) or α-ENO1 (ab227978); 2 mg HAP1 cytosolic cell extract, 4 °C overnight; washes with 600 mM NaCl; western blot; both directions

Sequence of UniProt P12004 (P12004 whole entry): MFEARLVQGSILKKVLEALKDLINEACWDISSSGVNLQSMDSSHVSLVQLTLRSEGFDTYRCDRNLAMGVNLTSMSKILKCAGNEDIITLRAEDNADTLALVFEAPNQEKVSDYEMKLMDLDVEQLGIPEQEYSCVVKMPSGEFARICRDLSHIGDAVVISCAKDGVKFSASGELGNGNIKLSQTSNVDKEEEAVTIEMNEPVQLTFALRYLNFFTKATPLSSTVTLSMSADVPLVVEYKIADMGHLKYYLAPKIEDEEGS

For “ENO1 F423A (from UniProt P06733 1-434) (enzyme)”, the percent reduction of the interaction against WT ENO1 was 80 to 90%.
